Laboratory results published in PMC9007595 (Molecular microbiology, 2020).

What was measured:
Assay in all cases: cross-linking
[1] = target: Mycobacterium tuberculosis HtpG-His6 with para-benzoyl-phenylalanine at W197 (Mycobacterium tuberculosis) (UniProt P9WMJ7)
[2] = target: Mycobacterium tuberculosis HtpG-His6 with para-benzoyl-phenylalanine at F10 (Mycobacterium tuberculosis) (UniProt P9WMJ7)
[3] = target: Mycobacterium tuberculosis HtpG-His6 with para-benzoyl-phenylalanine at F635 (Mycobacterium tuberculosis) (UniProt P9WMJ7)

How did the stoichiometry N [1] turn out when “Mycobacterium tuberculosis HtpG-His6 with para-benzoyl-phenylalanine at W197 (from UniProt P9WMJ7 1-647) (natural protein)” was run?
Its stoichiometry N is 2.

Which stoichiometry N [2] does the source give for “Mycobacterium tuberculosis HtpG-His6 with para-benzoyl-phenylalanine at F10 (from UniProt P9WMJ7 1-647) (natural protein)” here?
The stoichiometry N was 2.

With “Mycobacterium tuberculosis HtpG-His6 with para-benzoyl-phenylalanine at F635 (from UniProt P9WMJ7 1-647) (natural protein)” as the substance, how does the stoichiometry N [3] read?
The stoichiometry N was 2.
